Assay results from article PMC9544093.

How the values were obtained:
[1] = molecular target: Bovine γ-globulin (Sigma-Aldrich G5009), a polyvalent antibody mixture of ~80 % IgG, ~10 % IgM and <10 % IgA (bovine); assay: fluorescence polarisation; steady-state fluorescence anisotropy; 0.43 uM dansyl-labelled γ-globulin titrated with 0-250 uM unlabelled γ-globulin; neat buffer; 20 °C; pressure not named for this value (ambient implied); fitted to a 1:1 (monomer to dimer) model
[2] = molecular target: Bovine γ-globulin (Sigma-Aldrich G5009), a polyvalent antibody mixture of ~80 % IgG, ~10 % IgM and <10 % IgA (bovine); assay: fluorescence polarisation; steady-state fluorescence anisotropy in a high-pressure cell; 0.43 uM dansyl-labelled γ-globulin titrated with 0-250 uM unlabelled γ-globulin; neat buffer; 20 °C; p = 500 bar; fitted to a 1:1 (monomer to dimer) model
[3] = molecular target: Bovine γ-globulin (Sigma-Aldrich G5009), a polyvalent antibody mixture of ~80 % IgG, ~10 % IgM and <10 % IgA (bovine); assay: fluorescence polarisation; steady-state fluorescence anisotropy; 0.43 uM dansyl-labelled γ-globulin titrated with 0-250 uM unlabelled γ-globulin; 0.5 M TMAO; 20 °C; pressure not named for this value (ambient implied); fitted to a 1:1 (monomer to dimer) model
[4] = molecular target: Bovine γ-globulin (Sigma-Aldrich G5009), a polyvalent antibody mixture of ~80 % IgG, ~10 % IgM and <10 % IgA (bovine); assay: fluorescence polarisation; steady-state fluorescence anisotropy in a high-pressure cell; 0.43 uM dansyl-labelled γ-globulin titrated with 0-250 uM unlabelled γ-globulin; 0.5 M TMAO; 20 °C; p = 500 bar; fitted to a 1:1 (monomer to dimer) model

Ka [1]: 882 M⁻¹ | Ka [2]: 1530 M⁻¹ | Ka [3]: 592 M⁻¹ | Ka [4]: 997 M⁻¹
Substance: Bovine γ-globulin (Sigma-Aldrich G5009), a polyvalent antibody mixture of ~80 % IgG, ~10 % IgM and <10 % IgA
